From PMC7148561
Where “and” joins values, the source holds several entries; their conditions need not be identical. Equal entries are not always repeated.

What was measured:
[1] = molecular target: hHsp70 (human Hsp70A1), variant not told for the experiment (human) (UniProt P0DMV8); assay: SEC
[2] = molecular target: Cy3-labeled hHsp70 (E315C/I427C or I427C/K559C; variant not told for the printed rate); assay: FRET or BRET
[3] = molecular target: hHsp70 NBD–SBDβ labeling variant E315C/I427C (human) (UniProt P0DMV8); assay: FRET or BRET
[4] = molecular target: the two labeling variants of hHsp70 containing the T204A mutation; assay: FRET or BRET
[5] = molecular target: the two labeling variants of hHsp70 in the ATP-bound state (direct binding of JGF); assay: FRET or BRET

Substance	stoichiometry N (hHsp70 molecules per Hdj1 dimer) [1]	apparent rate constant of the fast binding phase [2]	kon [3]	rate constant of direct binding [4]	apparent rate constant of direct binding [5]
Hdj1, human type II Hsp40 homolog, full-length (from UniProt P25685 1-340) (natural protein)	2	1.2 s⁻¹	350000 M⁻¹ s⁻¹	2.5 s⁻¹ and 1.5 s⁻¹	
J+G/F-rich segment (JGF) of Hdj1, residues 1–141 (from UniProt P25685 1-141) (domain or fragment)					0.7 s⁻¹ and 1.6 s⁻¹
